Experimental data published in the supplement of paper PMC9112550, “Optimization of the antimicrobial peptide Bac7 by deep mutational scanning” (BMC Biology, 2022).

tested on: Escherichia coli TOP10; test: shrunken log2 fold change of peptide-encoding DNA abundance (4.5 h post-induction vs induction); higher = less antimicrobial activity (less host growth inhibition); details: time post-induction: 4.5 h; library: site-saturation at positions 5, 18, 19, 20
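Note: peptides expressed intracellularly from a pBAD plasmid library in pooled LB shake-flask culture, induced with 0.3% L-arabinose, DNA abundance read by NGS, three biological replicates, DESeq2 with apeglm shrinkage.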

Sequence	shrunken log2 fold change
RRIRTRPPRLPRPRPRPKRLPRP	0.2
RRIRGRPPRLPRPRPRPKTQPRP	0.929
RRIRKRPPRLPRPRPRPKFQPRP	0.343
RRIRKRPPRLPRPRPRPRSSPRP	0.263
RRIRQRPPRLPRPRPRPWQPPRP	-0.00999
RRIRERPPRLPRPRPRPSRVPRP	0.0314
RRIRWRPPRLPRPRPRPDERPRP	-0.00133
RRIRVRPPRLPRPRPRPWQQPRP	-0.097
RRIRDRPPRLPRPRPRPTLKPRP	-0.0215
RRIRWRPPRLPRPRPRPRLRPRP	0.461
RRIRTRPPRLPRPRPRPDLEPRP	-0.00853
RRIRSRPPRLPRPRPRPQHYPRP	-0.804
RRIRFRPPRLPRPRPRPIYRPRP	-0.122
RRIRVRPPRLPRPRPRPIRVPRP	-0.473
RRIRSRPPRLPRPRPRPELVPRP	0.111
RRIRARPPRLPRPRPRPDDHPRP	0.432
RRIRERPPRLPRPRPRPHIDPRP	-0.34
RRIRCRPPRLPRPRPRPTARPRP	0.105
RRIRARPPRLPRPRPRPYMYPRP	-0.635
RRIRGRPPRLPRPRPRPSHTPRP	-0.102
RRIRFRPPRLPRPRPRPEPGPRP	0.534
RRIRNRPPRLPRPRPRPNCMPRP	-0.0251
RRIRKRPPRLPRPRPRPEAVPRP	0.15
RRIRDRPPRLPRPRPRPVRQPRP	0.000541
RRIRRRPPRLPRPRPRPRGSPRP	0.729

Sequence	shrunken log2 fold change
RRIRMRPPRLPRPRPRPINPPRP	-0.0782
RRIRRRPPRLPRPRPRPLHIPRP	0.212
RRIRFRPPRLPRPRPRPPFMPRP	0.0431
RRIRHRPPRLPRPRPRPYIDPRP	-0.0149
RRIRTRPPRLPRPRPRPFECPRP	-0.143
RRIRDRPPRLPRPRPRPVRTPRP	-0.176
RRIRTRPPRLPRPRPRPSLWPRP	0.277
RRIRDRPPRLPRPRPRPKTWPRP	0.434
RRIRPRPPRLPRPRPRPYVPPRP	-0.0652
RRIRHRPPRLPRPRPRPEWIPRP	-0.0632
RRIRLRPPRLPRPRPRPHCAPRP	-0.309
RRIRKRPPRLPRPRPRPVSEPRP	0.189
RRIRCRPPRLPRPRPRPEHSPRP	0.0871
RRIRTRPPRLPRPRPRPVAAPRP	0.389
RRIRQRPPRLPRPRPRPSHMPRP	0.109
RRIRSRPPRLPRPRPRPKKRPRP	0.716
RRIRERPPRLPRPRPRPYGEPRP	-0.0274
RRIRERPPRLPRPRPRPCKLPRP	-0.187
RRIRARPPRLPRPRPRPVSCPRP	0.473
RRIRARPPRLPRPRPRPSHTPRP	0.162
RRIRARPPRLPRPRPRPMITPRP	0.312
RRIRNRPPRLPRPRPRPPEIPRP	-0.169
RRIRSRPPRLPRPRPRPPWYPRP	-0.321
RRIRIRPPRLPRPRPRPPHHPRP	-0.242
RRIRTRPPRLPRPRPRPLNTPRP	-0.602

Sequence	shrunken log2 fold change
RRIRPRPPRLPRPRPRPSCSPRP	-0.538
RRIRGRPPRLPRPRPRPTVKPRP	0.642
RRIRFRPPRLPRPRPRPLNNPRP	-0.767
RRIRLRPPRLPRPRPRPQLSPRP	-0.0956
RRIRTRPPRLPRPRPRPYWPPRP	-0.424
RRIRNRPPRLPRPRPRPWEAPRP	-0.173
RRIRHRPPRLPRPRPRPINMPRP	-0.244
RRIRDRPPRLPRPRPRPCDFPRP	0.0384
RRIRKRPPRLPRPRPRPQMNPRP	0.104
RRIRNRPPRLPRPRPRPYKRPRP	-1.27
RRIRRRPPRLPRPRPRPDIWPRP	0.418
RRIRCRPPRLPRPRPRPHNHPRP	-0.625
RRIRNRPPRLPRPRPRPNRFPRP	0.0252
RRIRYRPPRLPRPRPRPTCKPRP	-0.178
RRIRSRPPRLPRPRPRPIPRPRP	0.202
RRIRKRPPRLPRPRPRPTCQPRP	0.333
RRIRQRPPRLPRPRPRPFGRPRP	0.037
RRIRPRPPRLPRPRPRPNYKPRP	-0.537
RRIRLRPPRLPRPRPRPALNPRP	-0.0159
RRIRMRPPRLPRPRPRPGRLPRP	0.411
RRIRVRPPRLPRPRPRPTPMPRP	0.259
RRIRVRPPRLPRPRPRPCDSPRP	-0.0445
RRIRDRPPRLPRPRPRPRVYPRP	0.102
RRIRKRPPRLPRPRPRPMIHPRP	-0.00347
RRIRHRPPRLPRPRPRPPQSPRP	0.193
